{"source": "patent US20180291110A1", "about": "(Hoffmann-La Roche, published 2018)", "binders": {"B1": {"name": "2/99 VH15/VL4 (antibody, V domains shown)", "VH": "QQLQESGPGLVKPSETLSLTCTVSGFSLSSYAMSWVRQPPGKGLEWIGYIWSGGSTDYNPSLKSRVTISVDTSKNQVSLKLSSVTAADTAVYYCARRYGTSYPDYGDANGFDPWGQGTLVTVSS", "VL": "AYQMTQSPSSLSASVGDRVTITCRASQSISSYLSWYQQKPGKAPKLLIYRASTLASGVPSRFSGSGSGTDFTLTISSLQPEDFATYYCQQSYSSSNVDNTFGGGTKVEIK"}, "B2": {"name": "2/99 VH15/VL5 (antibody, V domains shown)", "VH": "B1 VH", "VL": "B1 VL with A1D, Y2I"}, "B3": {"name": "2/99 VH9/VL5 (antibody, V domains shown)", "VH": "QQLLESGGGLVQPGGSLRLSCAASGFTFSSYAMSWVRQAPGKGLEWVGYIWSGGSTDYADSVKGRFTISRDNSKNTLYLQMNSLRAEDTAVYYCAKRYGTSYPDYGDANGFDPWGQGTLVTVSS", "VL": "B1 VL with A1D, Y2I"}, "B4": {"name": "2/99 VH1/VL6 (antibody, V domains shown)", "VH": "B3 VH with Q1V, L4V, S6T, V11I, T27S, F28L, K96R", "VL": "B1 VL with Y2I, M4L"}, "B5": {"name": "2/99 VH2/VL6 (antibody, V domains shown)", "VH": "EVQLVETGGGLIQPGGSLRLSCAASGFSLSSYAMSWVRQAPGKGLEWVGYIWSGGSTDYADSVKGRFTISRDNSKNTLYLQMNSLRAEDTAVYYCARRYGTSYPDYGDANGFDPWGQGTLVTVSS", "VL": "B1 VL with Y2I, M4L"}, "B6": {"name": "2/99 VH8/VL6 (antibody, V domains shown)", "VH": "QQLVETGGGLIQPGGSLRLSCAASGFSLSSYAMSWVRQAPGKGLEWIGYIWSGGSTDYASWAKGRFTISKTSTTLYLQMNSLRAEDTAVYYCARRYGTSYPDYGDANGFDPWGQGTLVTVSS", "VL": "B1 VL with Y2I, M4L"}, "B7": {"name": "2/99 VH11/VL6 (antibody, V domains shown)", "VH": "B3 VH with T27S, F28L, K96R", "VL": "B1 VL with Y2I, M4L"}, "B8": {"name": "2/99 VH6/VL5 (antibody, V domains shown)", "VH": "B3 VH with L4V, S6T, V11I, T27S, F28L, V47I, K96R", "VL": "B1 VL with A1D, Y2I"}, "B9": {"name": "2/99 VH8/VL5 (antibody, V domains shown)", "VH": "B6 VH", "VL": "B1 VL with A1D, Y2I"}, "B10": {"name": "2/99 VH1/VL5 (antibody, V domains shown)", "VH": "B3 VH with Q1V, L4V, S6T, V11I, T27S, F28L, K96R", "VL": "B1 VL with A1D, Y2I"}, "B11": {"name": "2/99 VH22/VL5 (antibody, V domains shown)", "VH": "B1 VH with Q2S, L3M, E15Q, P39H, N59A, P60S, S61W, L62A", "VL": "B1 VL with A1D, Y2I"}, "B12": {"name": "2/99 VH5/VL5 (antibody, V domains shown)", "VH": "B3 VH with Q2S, L3M, L4E, S6T, V11I, T27S, F28L, K96R, Q116P", "VL": "B1 VL with A1D, Y2I"}, "B13": {"name": "2/99 VH18/VL4 (antibody, V domains shown)", "VH": "QVQLQESGPGLVKPSQTLSLTCTVSGFSLSSYAMSWIRQHPGKGLEWIGYIWSGGSTDYAPSLKSRVTISVDTSKNQFSLKLSSVTAADTAVYYCARRYGTSYPDYGDANGFDPWGQGTLVTVSS", "VL": "B1 VL"}, "B14": {"name": "2/99 VH17/VL4 (antibody, V domains shown)", "VH": "B1 VH with V70K, Q116P", "VL": "B1 VL"}, "B15": {"name": "2/99 VH20/VL4 (antibody, V domains shown)", "VH": "B1 VH with Q2S, L3M, E15Q, V36I, P39H, N59A", "VL": "B1 VL"}, "B16": {"name": "2/99 VH20/VL5 (antibody, V domains shown)", "VH": "B1 VH with Q2S, L3M, E15Q, V36I, P39H, N59A", "VL": "B1 VL with A1D, Y2I"}, "B17": {"name": "2/99 VH5/VL6 (antibody, V domains shown)", "VH": "B3 VH with Q2S, L3M, L4E, S6T, V11I, T27S, F28L, K96R, Q116P", "VL": "B1 VL with Y2I, M4L"}, "B18": {"name": "2/99 VH23-DANG/VL4 (antibody, V domains shown)", "VH": "QSMQESGPGLVKPSQTLSLTCTVSGFSLSSYAMSWIRQHPGKGLEWIGYIWSGGSTDYASWAKSRVTISKTSTTVSLKLSSVTAADTAVYYCARRYGTSYPDYGDANGFDPWGQGTLVTVSS", "VL": "B1 VL"}, "B19": {"name": "2/99 VH22/VL4 (antibody, V domains shown)", "VH": "B1 VH with Q2S, L3M, E15Q, P39H, N59A, P60S, S61W, L62A", "VL": "B1 VL"}, "B20": {"name": "2/99 VH7/VL5 (antibody, V domains shown)", "VH": "B3 VH with L4V, S6T, V11I, T27S, F28L, V47I, D60S, S61W, V62A, K96R", "VL": "B1 VL with A1D, Y2I"}, "B21": {"name": "2/99 VH11/VL5 (antibody, V domains shown)", "VH": "B3 VH with T27S, F28L, K96R", "VL": "B1 VL with A1D, Y2I"}, "B22": {"name": "2/99 VH19/VL4 (antibody, V domains shown)", "VH": "B1 VH with Q2S, L3M, E15Q, V36I, P39H, N59A, V77F", "VL": "B1 VL"}, "B23": {"name": "2/99 VH16/VL4 (antibody, V domains shown)", "VH": "B1 VH with Q116P", "VL": "B1 VL"}, "B24": {"name": "2/99 VH2/VL5 (antibody, V domains shown)", "VH": "B5 VH", "VL": "B1 VL with A1D, Y2I"}, "B25": {"name": "2/99 VH18/VL5 (antibody, V domains shown)", "VH": "B13 VH", "VL": "B1 VL with A1D, Y2I"}, "B26": {"name": "2/99 VH19/VL5 (antibody, V domains shown)", "VH": "B1 VH with Q2S, L3M, E15Q, V36I, P39H, N59A, V77F", "VL": "B1 VL with A1D, Y2I"}, "B27": {"name": "2/99 VH21/VL4 (antibody, V domains shown)", "VH": "B1 VH with Q2S, L3M, E15Q, V36I, P39H, N59A, P60S, S61W, L62A", "VL": "B1 VL"}, "B28": {"name": "2/99 VH21/VL5 (antibody, V domains shown)", "VH": "B1 VH with Q2S, L3M, E15Q, V36I, P39H, N59A, P60S, S61W, L62A", "VL": "B1 VL with A1D, Y2I"}, "B29": {"name": "2/99 VH9/VL6 (antibody, V domains shown)", "VH": "B3 VH", "VL": "B1 VL with Y2I, M4L"}, "B30": {"name": "2/99 VH16/VL5 (antibody, V domains shown)", "VH": "B1 VH with Q116P", "VL": "B1 VL with A1D, Y2I"}, "B31": {"name": "2/99 VH17/VL5 (antibody, V domains shown)", "VH": "B1 VH with V70K, Q116P", "VL": "B1 VL with A1D, Y2I"}, "B32": {"name": "2/99 VH6/VL6 (antibody, V domains shown)", "VH": "B3 VH with L4V, S6T, V11I, T27S, F28L, V47I, K96R", "VL": "B1 VL with Y2I, M4L"}, "B33": {"name": "2/99 VH23-DANG/VL5 (antibody, V domains shown)", "VH": "B18 VH", "VL": "B1 VL with A1D, Y2I"}, "B34": {"name": "2/99 VH12/VL5 (antibody, V domains shown)", "VH": "B13 VH with Q16E, H40P, A60N", "VL": "B1 VL with A1D, Y2I"}, "B35": {"name": "2/99 VH13/VL5 (antibody, V domains shown)", "VH": "B13 VH with Q16E, H40P, A60N, F78V", "VL": "B1 VL with A1D, Y2I"}}, "note": "Changes are numbered by the printed parent chain."}
{"molecular_target": "T1, human transferrin receptor (recombinant, for surface plasmon resonance) (human, UniProt P02786 89-760)", "T1 construct": "also called huTfR; human transferrin receptor-biotinylated", "T1 sequence (P02786 89-760 limits assumed)": "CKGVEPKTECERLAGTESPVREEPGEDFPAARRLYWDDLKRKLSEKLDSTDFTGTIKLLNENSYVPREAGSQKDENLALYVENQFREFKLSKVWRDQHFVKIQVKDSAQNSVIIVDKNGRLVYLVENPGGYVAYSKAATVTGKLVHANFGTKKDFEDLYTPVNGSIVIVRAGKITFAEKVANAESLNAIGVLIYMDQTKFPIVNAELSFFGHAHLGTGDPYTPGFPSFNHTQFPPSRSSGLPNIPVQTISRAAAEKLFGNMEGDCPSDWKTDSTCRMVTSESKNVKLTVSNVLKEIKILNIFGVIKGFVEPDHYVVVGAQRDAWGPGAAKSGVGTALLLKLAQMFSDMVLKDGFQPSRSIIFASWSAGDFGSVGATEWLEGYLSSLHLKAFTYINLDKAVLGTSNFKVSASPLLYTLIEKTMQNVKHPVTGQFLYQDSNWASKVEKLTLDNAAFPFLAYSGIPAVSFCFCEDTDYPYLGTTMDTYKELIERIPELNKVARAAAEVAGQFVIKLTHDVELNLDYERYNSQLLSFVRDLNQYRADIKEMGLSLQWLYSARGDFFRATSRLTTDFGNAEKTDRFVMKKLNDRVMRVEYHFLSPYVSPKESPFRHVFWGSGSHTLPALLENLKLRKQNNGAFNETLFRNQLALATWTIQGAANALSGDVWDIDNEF", "test": "SPR 25C", "units": {"koff": "s⁻¹"}}
{"binder": "B1", "koff": 0.00134}
{"binder": "B2", "koff": 0.00214}
{"binder": "B3", "koff": 0.0035}
{"binder": "B4", "koff": 0.00538}
{"binder": "B5", "koff": 0.00555}
{"binder": "B6", "koff": 0.0014}
{"binder": "B7", "koff": 0.00671}
{"binder": "B8", "koff": 0.00166}
{"binder": "B9", "koff": 0.00107}
{"binder": "B10", "koff": 0.00271}
{"binder": "B11", "koff": 0.00141}
{"binder": "B12", "koff": 0.00253}
{"binder": "B13", "koff": 0.00335}
{"binder": "B14", "koff": 0.000723}
{"binder": "B15", "koff": 0.00436}
{"binder": "B16", "koff": 0.00352}
{"binder": "B17", "koff": 0.00464}
{"binder": "B18", "koff": 0.000761}
{"binder": "B19", "koff": 0.00118}
{"binder": "B20", "koff": 0.00135}
{"binder": "B21", "koff": 0.00456}
{"binder": "B22", "koff": 0.001}
{"binder": "B23", "koff": 0.00127}
{"binder": "B24", "koff": 0.00262}
{"binder": "B25", "koff": 0.00349}
{"binder": "B26", "koff": 0.001}
{"binder": "B27", "koff": 0.00146}
{"binder": "B28", "koff": 0.00137}
{"binder": "B29", "koff": 0.00683}
{"binder": "B30", "koff": 0.00223}
{"binder": "B31", "koff": 0.00123}
{"binder": "B32", "koff": 0.00306}
{"binder": "B33", "koff": 0.00088}
{"binder": "B34", "koff": 0.00582}
{"binder": "B35", "koff": 0.00218}
